Experimental data taken from patent US20260274955A1 (JANUX THERAPEUTICS, published 2026).

target: T1, Anti-CD28 Fab (SEQ ID NOs: 202, 203); test: phage ELISA, Fab on plate;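 further: crude clonal phage supernatants added to wells pretreated with blocking buffer with or without CD28 antigen, then bound phage read out via HRP-linked anti-M13 antibody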
T1 construct: biotinylated and captured on neutravidin coated plates in the phage ELISA
T1 sequence (VH, as listed by the source, chain 1 of 2): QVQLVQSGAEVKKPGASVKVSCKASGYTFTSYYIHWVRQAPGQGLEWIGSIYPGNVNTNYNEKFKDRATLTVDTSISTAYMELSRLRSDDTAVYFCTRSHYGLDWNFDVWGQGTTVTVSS
T1 sequence (VL, as listed by the source, chain 2 of 2): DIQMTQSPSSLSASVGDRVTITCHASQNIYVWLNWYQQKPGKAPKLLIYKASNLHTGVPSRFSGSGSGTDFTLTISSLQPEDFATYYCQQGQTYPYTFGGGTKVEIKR
Protocol: After panning, phage infected bacteria were plated out and colonies picked into 96 well blocks. Clonal phage was then amplified and separated from bacterial cells via centrifugation.
Clonal phage were harvested as crude supernatants and screened via standard ELISAs. […] Prior to the addition of clonal phage, wells were incubated with blocking buffer and CD28 antigen or blocking buffer alone. Without washing or aspirating, clonal phage supernatants were then added to the wells and incubated for a short time. Wells were then washed followed by detection of bound phage using a horse radish conjugated anti-M13 antibody. Clonal phage of interest were then sent for sequence analysis.

Binder	Anti-CD28 Fab (SEQ ID NOs: 202, 203) signal
YCEGHAEQYMKKCL [Phage-728]	1.12
YCEGHVAEYRAKCL [Phage-720]	1.15
YCQGHLPQYIEKCL [Phage-721]	1.14
YCEGHAAAYMGKCL [Phage-722]	1.14
YCDGHEQQYMEKCL [Phage-723]	1.14
YCDGHLQMYMMKCL [Phage-724]	1.14
YCEGHLYEYMWKCL [Phage-725]	1.13
YCDGHEAEYMWKCL [Phage-727]	1.13
YCDGHVVEYMSKCL [Phage-729]	1.12
YCAGHLPQYMHKCL [Phage-730]	1.11
YCDGHIWPWIEKCL [Phage-731]	1.11
YCEGHSSLYLEKCL [Phage-732]	1.11

target: T2, anti-CD28 Fab (SEQ ID NOs: 202, 203); test: phage ELISA on captured Fab;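 further: ELISA with clonal phage supernatants added to wells preincubated with CD28 antigen or with blocking buffer only, bound phage detected by HRP-conjugated anti-M13 antibody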
T2 construct: biotinylated and captured on neutravidin coated plates in the phage ELISA
T2 sequence (VH, as listed by the source, chain 1 of 2): as the sequence (VH, as listed by the source, chain 1 of 2) above
T2 sequence (VL, as listed by the source, chain 2 of 2): as the sequence (VL, as listed by the source, chain 2 of 2) above
Protocol: (§1) Clonal phage were harvested as crude supernatants and screened via standard ELISAs. […] Prior to the addition of clonal phage, wells were incubated with blocking buffer and CD28 antigen or blocking buffer alone. Without washing or aspirating, clonal phage supernatants were then added to the wells and incubated for a short time. Wells were then washed followed by detection of bound phage using a horse radish conjugated anti-M13 antibody.

Binder	Anti-CD28 Fab (SEQ ID NOs: 202, 203) signal
YCDGHSEVYMSKCL (on phage, pIII fusion) [Phage-540]	1.55
YCDGHAQEYMVKCL (on phage, pIII fusion) [Phage-510]	1.61
YCAGHSPEYMQKCL (on phage, pIII fusion) [Phage-511]	1.6
YCDGHLLEYMSKCL (on phage, pIII fusion) [Phage-582]	1.46
YCDGHSVKYMAKCL (on phage, pIII fusion) [Phage-507]	1.61
YCSGHLPEYMWKCL (on phage, pIII fusion) [Phage-508]	1.61
YCDGHSVEYKLKCM (on phage, pIII fusion) [Phage-509]	1.61
YCEGHLPLYMDKCL (on phage, pIII fusion) [Phage-512]	1.6
YCEGHSAAYMQKCL (on phage, pIII fusion) [Phage-513]	1.6
YCEGHMPEYLQKCL (on phage, pIII fusion) [Phage-514]	1.6
YCDGHELQYMAKCL (on phage, pIII fusion) [Phage-515]	1.6
YCDGHRLEYLEKCL (on phage, pIII fusion) [Phage-516]	1.6
YCAGHLDQYIEKCL (on phage, pIII fusion) [Phage-517]	1.6
YCDGHAQEFIWKCL (on phage, pIII fusion) [Phage-518]	1.6
YCDGHSEAYMWKCL (on phage, pIII fusion) [Phage-519]	1.59
YCDGHLPMYMKKCL (on phage, pIII fusion) [Phage-533]	1.57
YCQGHLPQYVEKCL (on phage, pIII fusion) [Phage-534]	1.57
YCEGHLDMYVWKCL (on phage, pIII fusion) [Phage-535]	1.56
YCDGHSQEYMAHCL (on phage, pIII fusion) [Phage-536]	1.56
YCDGHSPLYMVKCL (on phage, pIII fusion) [Phage-537]	1.56

Binder	Anti-CD28 Fab (SEQ ID NOs: 202, 203) signal
YCDGHFLTYMTKCL (on phage, pIII fusion) [Phage-538]	1.56
YCAGHSEEYMDKCL (on phage, pIII fusion) [Phage-539]	1.55
YCEGHTLEYMWKCL (on phage, pIII fusion) [Phage-541]	1.55
YCDGHSQAHMQKCL (on phage, pIII fusion) [Phage-542]	1.55
YCAGHDQQYMEKCL (on phage, pIII fusion) [Phage-543]	1.55
YCDGHLPVYMMKCL (on phage, pIII fusion) [Phage-544]	1.55
YCAGHNAQYMSKCL (on phage, pIII fusion) [Phage-545]	1.55
YCDGHTSEYMTKCL (on phage, pIII fusion) [Phage-546]	1.54
YCDGHLPEYITKCL (on phage, pIII fusion) [Phage-573]	1.49
YCEGHRPEYMQKCV (on phage, pIII fusion) [Phage-574]	1.48
YCAGHTVENMAKCL (on phage, pIII fusion) [Phage-575]	1.48
YCEGHVLEYRGKCD (on phage, pIII fusion) [Phage-576]	1.48
YCDGHVAEYRHKCL (on phage, pIII fusion) [Phage-577]	1.47
YCEGHLDQYMTKCL (on phage, pIII fusion) [Phage-578]	1.47
YCAGHTQEYIEKCL (on phage, pIII fusion) [Phage-579]	1.47
YCDGHLAIYIGKCL (on phage, pIII fusion) [Phage-580]	1.47
YCDGHLEIYMSKCL (on phage, pIII fusion) [Phage-581]	1.46
YCDGHSLEYMVKCL (on phage, pIII fusion) [Phage-583]	1.46
YCEGHSLEHIAKCL (on phage, pIII fusion) [Phage-584]	1.46
YCEGHTPVYMPKCL (on phage, pIII fusion) [Phage-585]	1.46

target: Anti-CD28 Fab (SEQ ID NOs: 202, 203); test: phage binding ELISA on captured Fab;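 further: clonal phage supernatants added briefly to wells pre-incubated with CD28 antigen or with blocking buffer only, then washed, bound phage read by ELISA using HRP-coupled anti-M13 antibody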
Target sequence in this assay (VH, as listed by the source, chain 1 of 2): as the sequence (VH, as listed by the source, chain 1 of 2) above
Target sequence in this assay (VL, as listed by the source, chain 2 of 2): as the sequence (VL, as listed by the source, chain 2 of 2) above
Protocol: as §1

Binder	Anti-CD28 Fab (SEQ ID NOs: 202, 203) signal
YCEGHSSAYMAKCL [Phage-804]	0.9
YCDGHLAEYIQKCL [Phage-759]	1.04
YCAGHSSEYLQKCL [Phage-760]	1.03
YCAGHSQVYMWKCL [Phage-761]	1.02
YCEGHIEQYMRKCL [Phage-762]	1.01
YCFGHAPEYLLKCL [Phage-763]	1.01
YCEGHLREYMLKCL [Phage-764]	1.01
YCEGHSSVYLWKCL [Phage-765]	1
YCEGHSWIYIAKCL [Phage-766]	1
YCDGHLEVYMSKCL [Phage-767]	1
YCEGHRPEYMANCL [Phage-768]	1
YCEGHIEPYMQKCL [Phage-769]	0.99
YCDGHKPEYMDKCL [Phage-770]	0.99
YCDGHVGAYMWKCL [Phage-771]	0.99
